Test results reported in patent publication US20230087378A1 (UCB, published 2023).

T1: Human IL-17F (human, UniProt Q96PD4 31-163)
T1 sequence (looked up): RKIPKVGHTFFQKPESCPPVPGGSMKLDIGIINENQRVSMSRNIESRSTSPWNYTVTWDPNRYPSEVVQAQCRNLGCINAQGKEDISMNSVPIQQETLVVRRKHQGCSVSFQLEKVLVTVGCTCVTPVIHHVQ

B1: DVD2174 (Abbvie) (bispecific antibody)
chain 1: EVQLVQSGAEVKKPGASVKVSCKASGYTFTTYGVSWVRQAPGQGLEWMGEIYPGNYNTYYNEKFRGRVTMTTDTSTSTAYMELRSLRSDDTAVYYCARWRTSYFSDYGYFDYWGQGTTVTVSSASTKGPEVQLVQSGAEVKKPGSSVKVSCKASGGSFGGYGIGWVRQAPGQGLEWMGGITPFFGFADYAQKFQGRVTITADESTTTAYMELSGLTSDDTAVYYCARDPNEFWNGYYSTHDFDSWGQGTTVTVSS
chain 2: DVVMTQSPLSLPVTLGQPASISCRSSQSLVHSHGNTYLHWYQQRPGQSPRLLIYTVSNRFSGVPDRFSGSGSGTDFTLKISRVEAEDVGVYYCSQSTHVPYTFGGGTKVEIKRTVAAPSVFIFPPEIVLTQSPDFQSVTPKEKVTITCRASQDIGSELHWYQQKPDQPPKLLIKYASHSTSGVPSRFSGSGSGTDFTLTINGLEAEDAGTYYCHQTDSLPYTFGPGTKVDIKR
B2: DVD2166 (Abbvie) (bispecific antibody)
chain 1: EVQLVQSGAEVKKPGASVKVSCKASGYTFTTYGVSWVRQAPGQGLEWMGEIYPGNYNTYYNEKFRGRVTMTTDTSTSTAYMELRSLRSDDTAVYYCARWRTSYFSDYGYFDYWGQGTTVTVSSASTKGPEVQLVQSGAEVKKPGSSVKVSCKASGYTFTDYEIHWVRQAPGQGLEWMGVNDPESGGTFYNQKFDGRVTLTADESTSTAYMELSSLRSEDTAVYYCTRYSKWDSFDGMDYWGQGTTVTVSS
chain 2: DVVMTQSPLSLPVTLGQPASISCRSSQSLVHSHGNTYLHWYQQRPGQSPRLLIYTVSNRFSGVPDRFSGSGSGTDFTLKISRVEAEDVGVYYCSQSTHVPYTFGGGTKVEIKRTVAAPDIQMTQSPSSLSASVGDRVTITCRASSGIISYIDWFQQKPGKAPKRLIYATFDLASGVPSRFSGSGSGTDYTLTISSLQPEDFATYYCRQVGSYPETFGQGTKLEIKR

Key:
Human IL-13 [1] = target: T2, Human IL-13 (human, UniProt P35225 35-146); assay: SPR (Biacore T200), antibody captured on anti-human F(ab')2, human IL-13 as analyte, 25 C, 1:1 model
Description: (§1) A goat anti-human IgG, F(ab′)₂ fragment specific antibody (Jackson ImmunoResearch) was immobilised on a CM5 Sensor Chip via amine coupling chemistry to a level of approximately 5000 RU. […] At the end of each cycle the surface was regenerated at a flowrate of 10 μl/min using a 60 s injection of 50 mM HCl followed by a 30 s injection of 5 mM NaOH and a final 60 s injection of 50 mM HCl. […] Buffer blank injections were included to subtract instrument noise and drift.
(§2) Kinetic parameters were determined using a 1:1 binding model using Biacore T200 Evaluation software (version 3.0).

Human IL-13 [2] = target: T2, Human IL-13; assay: SPR, antibody captured on anti-human F(ab')2, 25 nM IL-13 injected
Human IL-17F = target: T1, Human IL-17F; assay: SPR (Biacore T200), antibody captured on anti-human F(ab')2, human IL-17F as analyte, 25 C, 1:1 model
Description: as §1, §2

Human IL-17A = Human IL-17A (human, UniProt Q16552 24-155); assay: SPR (Biacore T200), antibody captured on anti-human F(ab')2, human IL-17A as analyte, 25 C, 1:1 model
Description: as §1, §2

Human IL-13 [3] = target: T2, Human IL-13; assay: SPR, 100 nM IL-13Rα2 injected over IL-13 held by captured UCBXXXX (competitor)

Molecule	Kd (Human IL-13 [1]) [nM]	koff (Human IL-13 [1]) [s⁻¹]	kon (Human IL-13 [1]) [M⁻¹ s⁻¹]	IL-13 Binding (RU) (Human IL-13 [2])	Kd (Human IL-17F) [nM]	koff (Human IL-17F) [s⁻¹]	kon (Human IL-17F) [M⁻¹ s⁻¹]	Kd (Human IL-17A) [nM]	koff (Human IL-17A) [s⁻¹]	kon (Human IL-17A) [M⁻¹ s⁻¹]	IL-13Rα2 Binding (RU) (Human IL-13 [3])
BITS7201A (Genentech) (bispecific antibody)	0.0275	5.69e-05	2.05e+06	8.6	0.0744	0.000574	7.71e+06	0.0844	0.00106	1.27e+07	–
IL-13Rα2 (from UniProt Q14627 27-343) (receptor)	–	–	–	–	–	–	–	–	–	–	0.3
B1	0.0563	3.66e-05	650000	–	–	–	–	0.268	0.000128	476000	–
B2	0.0184	1.5e-05	816000	–	–	–	–	0.137	7.68e-05	559000	–
